Results on 24 substances are retold here after patent US20180298083A1.

Assay [1] concerns the target monomeric gp120^JRCSF (HIV-1 strain JRCSF) (UniProt P20871). The assay is described as follows: gp120 capture ELISA.
Assay [2] concerns the target CAAN.A2 (HIV-1).
A further assay deals with Scl 70, scleroderma 70. The experiment in a line: Luminex AtheNA Multi-Lyte ANA test.
A further assay deals with Jo1 antigen. The assay is described as follows: Luminex AtheNA Multi-Lyte ANA test.
The next assay deals with Sm, Smith antigen. The assay is described as follows: Luminex AtheNA Multi-Lyte ANA test.
A further assay deals with RNP, ribonucleoprotein. The experiment in a line: Luminex AtheNA Multi-Lyte ANA test.
Assay [3] has as its target SSA, Sjogren's syndrome antigen A. The assay is described as follows: Luminex AtheNA Multi-Lyte ANA test.
The target of assay [4] is SSB, Sjogren syndrome antigen B (Homo sapiens (Human)) (UniProt P05455). The experiment in a line: Luminex AtheNA Multi-Lyte ANA test.
The target in a further assay is CentrB, centromere B. The assay is described as follows: Luminex AtheNA Multi-Lyte ANA test.
Another assay concerns the target Histone. The experiment in a line: Luminex AtheNA Multi-Lyte ANA test.
Assay [5] deals with gp120 of X2088 (HIV-1 strain X2088.c9).
For assay [6], the target named is 6631.V3.C10 (HIV-1).
The next assay addresses M373A (HIV-1). The experiment in a line: gp120 capture ELISA.
For the next assay, the target named is G367A (HIV-1). The experiment in a line: gp120 capture ELISA.
Another assay deals with M475A (HIV-1). The assay is described as follows: gp120 capture ELISA.
The target in the next assay is G471A (HIV-1). The experiment in a line: gp120 capture ELISA.
Another assay concerns the target T283A (HIV-1). The experiment in a line: gp120 capture ELISA.
The target of a further assay is D279A (HIV-1). The assay is described as follows: gp120 capture ELISA.
The next assay addresses I371A (HIV-1). The assay is described as follows: gp120 capture ELISA.
In a further assay the target is R476A (HIV-1). The experiment in a line: gp120 capture ELISA.
In another assay the target is S365A (HIV-1). The experiment in a line: gp120 capture ELISA.
Another assay deals with P369A (HIV-1). The assay is described as follows: gp120 capture ELISA.
The target of a further assay is N332A (HIV-1). The experiment in a line: gp120 capture ELISA.
A further assay addresses K282A (HIV-1). The assay is described as follows: gp120 capture ELISA.
Another assay addresses E370A (HIV-1). The assay is described as follows: gp120 capture ELISA.
The target of the next assay is V372A (HIV-1). The assay is described as follows: gp120 capture ELISA.
The next assay deals with N280A (HIV-1). The experiment in a line: gp120 capture ELISA.
The next assay has as its target G472A (HIV-1). The experiment in a line: gp120 capture ELISA.
The target of a further assay is N262A (HIV-1). The assay is described as follows: gp120 capture ELISA.
A further assay concerns the target I467A (HIV-1). The assay is described as follows: gp120 capture ELISA.
A further assay addresses G473A (HIV-1). The assay is described as follows: gp120 capture ELISA.
The next assay addresses D474A (HIV-1). The assay is described as follows: gp120 capture ELISA.
A further assay deals with N197T (HIV-1). The experiment in a line: gp120 capture ELISA.
The target in another assay is R469A (HIV-1). The experiment in a line: gp120 capture ELISA.
For another assay, the target named is D368A (HIV-1). The experiment in a line: gp120 capture ELISA.
Another assay addresses D457A (HIV-1). The assay is described as follows: gp120 capture ELISA.
The target of a further assay is D167N (HIV-1). The experiment in a line: gp120 capture ELISA.
In another assay the target is G366A (HIV-1). The experiment in a line: gp120 capture ELISA.
The target in assay [7] is gp120 of X2088 (HIV-1 strain X2088.c9). The source holds these as a separate data set.
The target of assay [8] is 6631.V3.C10 (HIV-1). The source holds these as a separate data set.
Assay [9] deals with CAAN.A2 (HIV-1). This is another data set of the same source.
The target of assay [10] is 6631.V3.C10 (HIV-1). The source holds these as a separate data set.

Where two headings read alike, the source gives them in different places. Some results are limits rather than exact numbers.

Chain of CentrB, centromere B (P07199 2-599): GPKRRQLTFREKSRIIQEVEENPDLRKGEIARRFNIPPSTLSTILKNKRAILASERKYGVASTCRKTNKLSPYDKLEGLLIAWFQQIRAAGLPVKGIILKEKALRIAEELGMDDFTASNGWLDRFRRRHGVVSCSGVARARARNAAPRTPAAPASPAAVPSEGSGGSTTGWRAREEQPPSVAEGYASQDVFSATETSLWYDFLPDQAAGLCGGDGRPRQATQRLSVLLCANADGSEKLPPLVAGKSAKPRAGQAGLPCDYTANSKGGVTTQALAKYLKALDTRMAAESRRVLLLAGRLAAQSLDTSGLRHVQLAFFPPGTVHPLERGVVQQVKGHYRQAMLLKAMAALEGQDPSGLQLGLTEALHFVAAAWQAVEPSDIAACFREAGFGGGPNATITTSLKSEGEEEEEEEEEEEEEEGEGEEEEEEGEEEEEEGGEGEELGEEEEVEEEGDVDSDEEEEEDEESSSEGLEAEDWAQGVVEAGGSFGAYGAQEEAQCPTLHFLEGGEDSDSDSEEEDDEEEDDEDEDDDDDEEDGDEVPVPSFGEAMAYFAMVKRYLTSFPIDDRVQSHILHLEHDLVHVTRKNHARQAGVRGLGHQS
Chain of SSB, Sjogren syndrome antigen B (Homo sapiens (Human)) (P05455 whole entry): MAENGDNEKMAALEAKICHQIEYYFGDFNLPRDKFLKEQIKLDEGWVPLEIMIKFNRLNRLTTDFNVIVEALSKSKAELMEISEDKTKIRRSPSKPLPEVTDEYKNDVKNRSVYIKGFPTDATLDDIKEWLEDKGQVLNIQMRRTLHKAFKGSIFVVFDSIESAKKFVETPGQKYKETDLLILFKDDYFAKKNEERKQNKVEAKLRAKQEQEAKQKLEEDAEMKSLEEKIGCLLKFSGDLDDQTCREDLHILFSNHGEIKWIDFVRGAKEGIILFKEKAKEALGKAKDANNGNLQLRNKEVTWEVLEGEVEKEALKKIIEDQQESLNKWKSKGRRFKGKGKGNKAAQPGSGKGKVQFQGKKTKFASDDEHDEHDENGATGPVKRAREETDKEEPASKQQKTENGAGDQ

As for “CD4-Ig (from UniProt P01730 26-203) (Fc fusion; other documents disagree on this pair)”, the Binding affinity relative to WT (%) in [1] amounted to 100%.

In the assay with CAAN.A2 (HIV-1) [2], VRC01 ARP60-62GGGHC (antibody) returned a neutralisation IC50 of 3.23 µg/mL.

Take synagis (antibody): the Luminex reactivity (unit not given) came to 2 with Scl 70, scleroderma 70; 2.5 with Jo1 antigen; 2.3 with Sm, Smith antigen; 1.3 in the assay with RNP, ribonucleoprotein; 3.3 in assay [3]; 4.8 in [4]. Moreover, the Luminex reactivity (unit not given) in the assay with CentrB, centromere B is 2; with Histone it was 3.

With N6 with CDRL1 of VRC01 (antibody), the neutralisation IC50 (in [5]; with 6631.V3.C10 (HIV-1) [6]) was more than 50 µg/mL each time.

As for 3BNC117 (antibody), the Binding affinity relative to WT (%) came out at 133% in the assay with M373A (HIV-1); 25% with G367A (HIV-1); 169% with M475A (HIV-1); 164% with G471A (HIV-1); 71% with T283A (HIV-1); 0% with D279A (HIV-1). Also, the Binding affinity relative to WT (%) with I371A (HIV-1) was found to be 40%; with R476A (HIV-1) it was 171%; with S365A (HIV-1), 90%; with P369A (HIV-1) it was 75%; with N332A (HIV-1) it was 82%; with K282A (HIV-1), 3%. For the same substance, the Binding affinity relative to WT (%) stood at 31% with E370A (HIV-1); 62% in the assay with V372A (HIV-1); 36% with N280A (HIV-1); 56% in the assay with G472A (HIV-1); 33% in the assay with N262A (HIV-1); 87% in the assay with I467A (HIV-1). Moreover, the Binding affinity relative to WT (%) in the assay with G473A (HIV-1) was 40%; with D474A (HIV-1), 38%; with N197T (HIV-1) it was 101%; with R469A (HIV-1) it was 97%; in the assay with D368A (HIV-1), 16%; with D457A (HIV-1), 84%. Also, the Binding affinity relative to WT (%) with D167N (HIV-1) worked out at 95%; in assay [1], 100%; in the assay with G366A (HIV-1), 27%.

In turn, N6 with FRH3 of VRC01 (antibody) yielded a neutralisation IC50 in the assay with 6631.V3.C10 (HIV-1) [6] of 0.152 µg/mL.

Take N6 with FRL1 of VRC01 (antibody): the neutralisation IC50 in [5] is 1.14 µg/mL; in the assay with 6631.V3.C10 (HIV-1) [6], 0.642 µg/mL; with CAAN.A2 (HIV-1) [2], 1.01 µg/mL.

In turn, VRC01 G54YHC (antibody) displayed a neutralisation IC50 with CAAN.A2 (HIV-1) [2] of 1.31 µg/mL.

With “N6 heavy chain with VRC27 light chain (antibody)”, the neutralisation IC50 was more than 50 µg/mL in assay [7], 0.285 µg/mL with 6631.V3.C10 (HIV-1) [8] and 0.278 µg/mL with CAAN.A2 (HIV-1) [9].

“N6 heavy chain with 12A21 light chain (antibody)”: the neutralisation IC50 is 0.314 µg/mL in assay [7], 3.11 µg/mL with 6631.V3.C10 (HIV-1) [8] and 3.71 µg/mL with CAAN.A2 (HIV-1) [9].

Take N6 with CDRL3 of VRC01 (antibody): the neutralisation IC50 amounted to 0.125 µg/mL in assay [5] and 0.139 µg/mL with 6631.V3.C10 (HIV-1) [6].

Substance “12A21 heavy chain with N6 light chain (antibody)” registered a neutralisation IC50 in the assay with CAAN.A2 (HIV-1) [9] of 11 µg/mL.

As to N6 GGG60-62AHS VRC27 (antibody), in the assay with 6631.V3.C10 (HIV-1) [10], the neutralisation IC50 was 0.089 µg/mL.

Take VRC-PG04 (antibody): the Binding affinity relative to WT (%) in the assay with M373A (HIV-1) is 44%; with G367A (HIV-1), 19%; with M475A (HIV-1) it was 90%; with G471A (HIV-1), 64%; in the assay with T283A (HIV-1), 83%; in the assay with D279A (HIV-1), 247%. The Binding affinity relative to WT (%) came to 21% with I371A (HIV-1); 84% in the assay with R476A (HIV-1); 34% with S365A (HIV-1); 44% with P369A (HIV-1); 31% with N332A (HIV-1); 12% in the assay with K282A (HIV-1). The Binding affinity relative to WT (%) with E370A (HIV-1) turned out to be 20%; with V372A (HIV-1), 15%; in the assay with N280A (HIV-1), 12%; with G472A (HIV-1), 38%; with N262A (HIV-1), 14%; with I467A (HIV-1), 40%. The Binding affinity relative to WT (%) was found to be 34% in the assay with G473A (HIV-1); 0% with D474A (HIV-1); 39% with N197T (HIV-1); 6% with R469A (HIV-1); 12% in the assay with D368A (HIV-1); 0% with D457A (HIV-1). The Binding affinity relative to WT (%) with D167N (HIV-1) stood at 42%; with G366A (HIV-1) it was 17%.

For N6 with FRL3 of VRC01 (antibody), the neutralisation IC50 (in assay [5]; with 6631.V3.C10 (HIV-1) [6]) was more than 50 µg/mL each time.

As for N6 with CDRH1 of VRC27 (antibody), the neutralisation IC50 with 6631.V3.C10 (HIV-1) [10] turned out to be 0.122 µg/mL.

On to VRC27 (antibody), for which the neutralisation IC50 in the assay with CAAN.A2 (HIV-1) [9] was 0.264 µg/mL. Further, the Binding affinity relative to WT (%) with M373A (HIV-1) worked out at 23%; with G367A (HIV-1), 0%; with M475A (HIV-1), 35%; with G471A (HIV-1), 131%; with T283A (HIV-1) it was 15%; with D279A (HIV-1), 7%. The Binding affinity relative to WT (%) with I371A (HIV-1) came out at 0%; in the assay with R476A (HIV-1), 37%; with S365A (HIV-1) it was 107%; in the assay with P369A (HIV-1), 38%; with N332A (HIV-1), 57%; with K282A (HIV-1), 57%. Moreover, the Binding affinity relative to WT (%) was determined as 2% with E370A (HIV-1); 15% with V372A (HIV-1); 0% in the assay with N280A (HIV-1); 0% in the assay with G472A (HIV-1); 0% in the assay with N262A (HIV-1); 27% with I467A (HIV-1). In addition, the Binding affinity relative to WT (%) with G473A (HIV-1) was determined as 6%; with D474A (HIV-1), 0%; in the assay with N197T (HIV-1), 28%; with R469A (HIV-1), 0%; with D368A (HIV-1), 0%; with D457A (HIV-1), 19%. For the same substance, the Binding affinity relative to WT (%) with D167N (HIV-1) is 37%; in assay [1], 100%; in the assay with G366A (HIV-1), 3%.

Turning to 4E10 (antibody), the Luminex reactivity (unit not given) in the assay with Scl 70, scleroderma 70 amounted to 8; with Jo1 antigen, 146; in the assay with Sm, Smith antigen, 6.6; in the assay with RNP, ribonucleoprotein, 9; in [3], 31; in assay [4] it was 161. Further, the Luminex reactivity (unit not given) with CentrB, centromere B was 3; with Histone it was 9.

N6 with CDRH3 of VRC01 (antibody) had a neutralisation IC50 in the assay with T250-4 (HIV-1) of 4.52 µg/mL.

N6 with CDRH1 of VRC01 (antibody): the neutralisation IC50 was more than 50 µg/mL in the assay with T250-4 (HIV-1), 2.08 µg/mL in assay [5] and more than 50 µg/mL with 6631.V3.C10 (HIV-1) [6].

In the case of VRC07 N6CDRH3 (antibody), the neutralisation IC50 with CAAN.A2 (HIV-1) [2] is 2.18 µg/mL.

Turning to VRC08 N6CDRH3 (antibody), the neutralisation IC50 in the assay with CAAN.A2 (HIV-1) [2] is more than 50 µg/mL.

Turning to VRC01 N6CDRH3 (antibody), the neutralisation IC50 with CAAN.A2 (HIV-1) [2] was 2.23 µg/mL.

In the case of “N6 heavy chain with VRC01 light chain (antibody)”, the neutralisation IC50 in [7] is more than 50 µg/mL; with 6631.V3.C10 (HIV-1) [8], 1.04 µg/mL; with CAAN.A2 (HIV-1) [9], 0.211 µg/mL.
